The values that follow come from publication PMC5138847 (Scientific Reports, 2016).

Series [1] deals with T1, DrUox (zebrafish urate oxidase, uricase) (Danio rerio, UniProt Q6DG85, F216S).
T1 construct: gene uox; full length, 298 aa; N-terminal 6xHis tag (pET28b) for wt and F216S kinetics, untagged for crystals; E. coli BL21-CodonPlus(DE3); homotetramer
T1 sequence (Q6DG85 1-298 F216S): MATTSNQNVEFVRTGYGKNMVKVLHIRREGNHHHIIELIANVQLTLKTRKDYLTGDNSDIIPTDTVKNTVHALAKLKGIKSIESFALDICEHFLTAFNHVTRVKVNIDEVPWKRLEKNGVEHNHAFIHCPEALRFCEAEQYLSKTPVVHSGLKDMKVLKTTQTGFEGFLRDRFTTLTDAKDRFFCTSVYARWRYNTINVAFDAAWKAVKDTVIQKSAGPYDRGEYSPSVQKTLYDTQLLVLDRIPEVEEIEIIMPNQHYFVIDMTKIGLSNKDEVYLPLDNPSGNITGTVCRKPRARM
The series is described as follows: UV absorbance at […] nm, global fit to competitive inhibition. In kind it is biochemical. Conditions: read-out: Xanthine / Ki.

The target in series [2] is T2, DrUox (zebrafish urate oxidase, uricase) (Danio rerio, UniProt Q6DG85).
T2 construct: gene uox; full length, 298 aa; N-terminal 6xHis tag (pET28b) for wt and F216S kinetics, untagged for crystals; E. coli BL21-CodonPlus(DE3); homotetramer
T2 sequence (Q6DG85 1-298): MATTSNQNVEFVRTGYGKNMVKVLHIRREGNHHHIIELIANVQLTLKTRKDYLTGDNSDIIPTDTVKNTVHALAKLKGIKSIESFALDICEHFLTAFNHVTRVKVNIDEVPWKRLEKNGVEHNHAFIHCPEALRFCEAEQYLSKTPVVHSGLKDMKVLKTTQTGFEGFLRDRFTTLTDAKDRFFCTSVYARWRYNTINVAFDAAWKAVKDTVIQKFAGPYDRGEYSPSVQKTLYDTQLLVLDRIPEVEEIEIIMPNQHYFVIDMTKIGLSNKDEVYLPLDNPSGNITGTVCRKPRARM
The series is described as follows: UV absorbance, global fit to competitive inhibition. As to conditions: read-out: Xanthine / Ki. It counts as biochemical.

Substrate in the series “purified protein”: O=c1[nH]c(=O)c2[nH]c(=O)[nH]c2[nH]1
The series is described as follows: purified protein. As to conditions: 100 mM potassium phosphate pH 7.6, 25 °C, equimolar DrUrah.

Series [3] concerns the molecule itself. The series is described as follows: SEC; HPLC-SEC on a Superdex 200 increase 3.2/300 column, native conditions, about 13 ug of each sample, elution monitored at 280 nm, calibrated with standards. (In general: SEC sorts molecules by how far they enter the pores of the column.)
Series [4] deals with the molecule itself. The series is described as follows: crystal structure; untagged DrUox 10 mg/ml (10 mM Tris-HCl pH 7.6, 1 mM EDTA), crystallised in 0.1 M Tris-HCl pH 8.5, 8% PEG 8000; space group P21, two tetramers in the asymmetric unit; 2.8 A.

With `O=c1[nH]c(=O)c2[nH]cnc2[nH]1` [xanthine], the Ki in series [1] stood at 59.2 ± 8.2 µM; in series [2] it was 4.3 ± 0.27 µM.

B1: DrUox (zebrafish urate oxidase, uricase) (Danio rerio) (protein)
chain: MATTSNQNVEFVRTGYGKNMVKVLHIRREGNHHHIIELIANVQLTLKTRKDYLTGDNSDIIPTDTVKNTVHALAKLKGIKSIESFALDICEHFLTAFNHVTRVKVNIDEVPWKRLEKNGVEHNHAFIHCPEALRFCEAEQYLSKTPVVHSGLKDMKVLKTTQTGFEGFLRDRFTTLTDAKDRFFCTSVYARWRYNTINVAFDAAWKAVKDTVIQKFAGPYDRGEYSPSVQKTLYDTQLLVLDRIPEVEEIEIIMPNQHYFVIDMTKIGLSNKDEVYLPLDNPSGNITGTVCRKPRARM
Broadly, the Km is the concentration of substrate that gives half-maximal velocity. In general, kcat refers to the number of substrate molecules converted per active site and unit of time at saturation. By kcat/Km is commonly meant the second-order rate constant that governs catalysis at low substrate concentration. As to B1, in “purified protein”, the Km stood at 11 ± 1 µM, the kcat was 3.95 s⁻¹ and the kcat/Km was found to be 360000 M⁻¹ s⁻¹.

B2: zebrafish urate oxidase F216S mutant, His-tagged (enzyme, zebrafish (Danio rerio), UniProt Q6DG85 1-298, looked up)
chain: MATTSNQNVEFVRTGYGKNMVKVLHIRREGNHHHIIELIANVQLTLKTRKDYLTGDNSDIIPTDTVKNTVHALAKLKGIKSIESFALDICEHFLTAFNHVTRVKVNIDEVPWKRLEKNGVEHNHAFIHCPEALRFCEAEQYLSKTPVVHSGLKDMKVLKTTQTGFEGFLRDRFTTLTDAKDRFFCTSVYARWRYNTINVAFDAAWKAVKDTVIQKSAGPYDRGEYSPSVQKTLYDTQLLVLDRIPEVEEIEIIMPNQHYFVIDMTKIGLSNKDEVYLPLDNPSGNITGTVCRKPRARM
notes: also called F216S DrUox; mutant DrUox; source: E. coli BL21-CodonPlus(DE3), purified (Talon cobalt resin)
The stoichiometry N is a count of units in the complex or per binding partner. In the case of B2, in “purified protein”, the Km turned out to be 284 ± 31 µM, the kcat turned out to be 3.99 s⁻¹ and the kcat/Km was determined as 14000 M⁻¹ s⁻¹. For the same molecule, the “stoichiometry N” value in series [3] turned out to be 4.

B3: zebrafish urate oxidase, His-tagged wild type (enzyme, zebrafish (Danio rerio), UniProt Q6DG85 1-298, looked up)
chain: MATTSNQNVEFVRTGYGKNMVKVLHIRREGNHHHIIELIANVQLTLKTRKDYLTGDNSDIIPTDTVKNTVHALAKLKGIKSIESFALDICEHFLTAFNHVTRVKVNIDEVPWKRLEKNGVEHNHAFIHCPEALRFCEAEQYLSKTPVVHSGLKDMKVLKTTQTGFEGFLRDRFTTLTDAKDRFFCTSVYARWRYNTINVAFDAAWKAVKDTVIQKFAGPYDRGEYSPSVQKTLYDTQLLVLDRIPEVEEIEIIMPNQHYFVIDMTKIGLSNKDEVYLPLDNPSGNITGTVCRKPRARM
notes: also called wt DrUox; His-tagged wt; source: E. coli BL21-CodonPlus(DE3), purified (Talon cobalt resin)
Regarding B3, the “stoichiometry N” value in series [3] was 4.

B4: zebrafish (Danio rerio) urate oxidase, untagged wild type (enzyme, UniProt Q6DG85 1-298, looked up)
chain: MATTSNQNVEFVRTGYGKNMVKVLHIRREGNHHHIIELIANVQLTLKTRKDYLTGDNSDIIPTDTVKNTVHALAKLKGIKSIESFALDICEHFLTAFNHVTRVKVNIDEVPWKRLEKNGVEHNHAFIHCPEALRFCEAEQYLSKTPVVHSGLKDMKVLKTTQTGFEGFLRDRFTTLTDAKDRFFCTSVYARWRYNTINVAFDAAWKAVKDTVIQKFAGPYDRGEYSPSVQKTLYDTQLLVLDRIPEVEEIEIIMPNQHYFVIDMTKIGLSNKDEVYLPLDNPSGNITGTVCRKPRARM
notes: cDNA IMAGE:100059545; In the crystal, electron density runs from Gly8 to Pro294; Cys129 forms an inter-subunit disulfide (chains A-C and B-D); also called DrUox; Uox; source: E. coli BL21-CodonPlus(DE3), purified (xanthine-agarose column, eluted with urate)
In the case of B4, in series [4], the “stoichiometry N” value worked out at 4.
